Data on one molecule can be found in US10864251B2, “Peptides of syndecan-1 for inhibiting angiogenesis” (Wisconsin Alumni Research Foundation, priority 2006, dated 2020).

For this assay, the system named is human aortic endothelial cells (HAEC). Description: Cell attachment and spreading on VN, HAECs. It counts as cell-based. The method, then:
FIG. 2—Human aortic endothelial cells rely on αvβ3 and αvβ5 integrins for spreading on VN. Human aortic endothelial cells (HAECs) were suspended and replated on 10 μg/ml VN in the presence of integrin inhibitory antibodies mAb 13 (specific for β1-containing integrins; this will inhibit the αvβ1 integrin), LM609 (specific for the αvβ3 integrin) and P1F6 (specific for the αvβ5 integrin), or combinations of these mAbs. After 2 hr, the cells were fixed, stained with Alexa488-conjugated phalloidin to aid in visualization, and observed by fluorescence microscopy to document integrin-dependent spreading. Inhibition of spreading requires simultaneous inhibition of both αvβ3 and αvβ5 integrins.
FIG. 3—αvβ3 and αvβ5 integrin-mediated spreading of human aortic endothelial cells on VN is disrupted by recombinant Sdc1 ectodomain fusion protein. HAECs were plated on VN in the presence of no competitor, 1-10 μM GST-mS1ED (recombinant mouse Sdc1 ectodomain expressed as a fusion protein with GST) or GST alone.
FIG. 4—Inhibition of HAEC spreading on VN by silencing of Sdc-1. […]
FIGS. 10A-10D—Dependence of HMEC cell attachment and spreading on integrin activation by Sdc1 and its inhibition by SSTN. […] Sdc1 expression was quantified by flow cytometry using human Sdc1-specific mAb B-B4 or a control mouse IgG. […]

B1: S1ED: recombinant mouse Sdc1 ectodomain (amino acids 18-251), expressed in bacteria as GST fusion or 6×His-tagged protein (protein)
chain: QPALPQIVAVNVPPEDQDGSGDDSDNFSGSGTGALPDTLSRQTPSTWKDVWLLTATPTAPEPTSSNTETAFTSVLPAGEKPEEGEPVLHVEAEPGFTARDKEKEVTTRPRETVQLPITQRASTVRVTTAQAAVTSHPHGGMQPGLHETSAPTAPGQPDHQPPRVEGGGTSVIKEVVEDGTANQLPAGEGSGEQDFTFETSGENTAVAAVEPGLRNQPPVDEGATGASQSLLDRK
modifications: left off: a dimerising Fc or GST
notes: recombinant mouse Sdc1 ectodomain (amino acids 18-251), expressed in bacteria as GST fusion or 6×His-tagged protein
B1: where the note is “read-out: IC50, cell spreading on vitronectin”, the 50% inhibitory concentration (IC50) was approximately 1000 nM. Further, the “cell spreading on VN” value (soluble competitor 1-10 μM (FIG. 3)) is recorded as “blocked”.

For orientation: IC50 means the point on the concentration scale where inhibition reaches its midpoint.
